Results reported in the RNAGym collection of RNA variant scans (doi:10.1073/pnas.2313332121).
This sample holds only a part of the variants without activity.

B1: TPR 5TU (parent)
chain: GGAUCUUCUCGAUCUAACAAAAAAGACAAAUCUGCCACAAAGCUUGAGAGCAUCUUCGGAUGCAGAGGCGGCAGCCUUCGGUGGCGCGAUAGCGCCAACGUUCUCAACUAUGACACGCAAAACGCGUGCUCCGUUGAAUGGAGUUUAUCAUG

Variants of: B1
Experiment: polymerase ribozyme fitness, log enrichment relative to wild type (log ratio); higher = more active; in vitro selection for triplet polymerase activity
Summary of the method: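 Streptavidin-bead capture of gel-excised extended constructs, followed by RT-PCR, closed a single triplicate in vitro selection round. That round began by annealing PCR-built, transcribed mutant libraries of each subunit of a heterodimeric triplet polymerase ribozyme with a biotinylated primer, the partner subunit and triplets, then incubating them frozen at −7 °C. After Illumina sequencing of inputs and outputs, genotypes needed ≥10 input reads and ≥1 read per output. Fitness is the base-2 logarithm of genotype enrichment over wild-type enrichment, using inverse-variance-weighted replicate averages.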

Row | Variant | polymerase ribozyme fitness (log ratio)
1 | A52G C108U | -2.1
2 | A52U U139G U144C | -1.12
3 | A52G U55A C87G | ≤ -4.2
4 | A52C U53A G86A C87U C105A A106U | ≤ -4.2
5 | A52C G70C C85U G94C C129A | ≤ -4.2
6 | A52G U53A A89C C93U | -2.02
7 | A52C U90G | ≤ -4.2
8 | A52C C57U C85U U135A | -1.62
9 | A52G C63U C93U U145G C149U | -4.11
10 | A52U A73U A89C G92C C129G A137U | ≤ -4.2
11 | C51U G59A C85G A137U | ≤ -4.2
12 | A52G A73G C85U | -0.163
13 | A52U G136A | -0.592
14 | A52C U56A G67C G84A U139G U144A | ≤ -4.2
15 | A52G C96U | -1.46
16 | A52C U55A A66C C79G G133U A137G | ≤ -4.2
17 | A52G C105A C123A G133U U144G | ≤ -4.2
18 | A52U C75U A147U | -2.82
19 | A52G A66C C85A A110C | ≤ -4.2
20 | A52C C57U G81C | -1.59
21 | C51U C96U | -0.419
22 | A52G U144A | -0.831
23 | A52G A98U | -2.02
24 | C51U C96U G124A | -0.0401

Row | Variant | polymerase ribozyme fitness (log ratio)
25 | A52C C54A | ≤ -4.2
26 | A52C G94C A106G | -1.86
27 | A52C G84U C96U U144A | ≤ -4.2
28 | A52G G83U U101A A115U | -3.39
29 | A52C C87A G92C G141A | ≤ -4.2
30 | A52G C76U C85G C123A U144G | -0.879
31 | A52C G67C A89C A106G A107G | ≤ -4.2
32 | A52C C96U U130A U144G A147C | -3.6
33 | A52U G80A | -3.35
34 | A52C A73G C85A | -3.88
35 | A52U U82A C93A C131G | ≤ -4.2
36 | C51U U56A G71C G84A G140A A142U | ≤ -4.2
37 | A52C U56C C57A G67A C85U A97U U146G U151G | ≤ -4.2
38 | C51U C131G | -3.49
39 | A52C G81A G86U | -2.1
40 | A52U C57A U135C | -3.88
41 | A52G U55A A91C A97U G112A A150U | ≤ -4.2
42 | A52G C54A | -0.998
43 | A52G C75A G84U A110U | ≤ -4.2
44 | A52C G58A C93A C118U | -3.55
45 | A52G U135G U139C A147C | ≤ -4.2
46 | A52G A60G C75U G88U G92A C95U C116U | ≤ -4.2
47 | A52U G86U C105U | -1.83
48 | A52C C69A C96A | -3.18

Row | Variant | polymerase ribozyme fitness (log ratio)
49 | A52G U104A A122G U139G | -1.23
50 | C51U G92C U135C | -3.1
51 | A52C U55A G59U | 0.0736
52 | A52U A150G | -1.24
53 | A52C A113U | -3.88
54 | A52C A113C | -3.36
55 | A52C G84A G88C | -4.09
56 | U53A A66C A89G G94C C99G | -3.94
57 | A52U C96A | -2.92
58 | A52U G84A G143C | -3.92
59 | C51U U61A G86C | -4.06
60 | A52G C57A G94U G117U A121C C131G | ≤ -4.2
61 | A52G A106G | -0.771
62 | A52G G70C U78G C93G G141C | ≤ -4.2
63 | A52C A60G | -0.764
64 | A52U G81A C87A A97U U104G G126C U134G G136C | ≤ -4.2
65 | A52U C54U A97U | -2.56
66 | A52C C85U U102C | -2.57
67 | A52G G84A G136A | -0.512
68 | A52U G59A A98G C131U | -1.78
69 | A52U U61G A91G C96A G117C | -3.76
70 | A52C G58U G65U C69A G80C C103A C108G | ≤ -4.2
71 | C51U G58A | -1.32
72 | A52U G86U U104C | -3.56

Row | Variant | polymerase ribozyme fitness (log ratio)
73 | A52G G88A C118A C123U G141C | ≤ -4.2
74 | C51U G83U | -0.266
75 | C51U G67A C72A C123U C132A U134C | ≤ -4.2
76 | A52U U104A G133C G141C U146G | ≤ -4.2
77 | U53A A73U | -2.21
78 | A52G U78C A89U | -1.24
79 | C51U G86A | -2.13
80 | C51U G86U | -1.45
81 | A52G U53A C54U C93G G112U | ≤ -4.2
82 | C51U G81C C87U C116A G124A U134A U148A | ≤ -4.2
83 | C51U U134A | -2.32
84 | C51U U56A A73U U78G A91U G141C G152A | -3.97
85 | A52C U101G | -1.56
86 | A52U A91U U139G U144A | ≤ -4.2
87 | A52G G58C C79U A98U U101G C108A | ≤ -4.2
88 | A52C A98U | -0.983
89 | A52C C72U C96A C123U | -2.72
90 | A52G G84U | -1.32
91 | A52G G84A | -1.03
92 | A52C A91U U148A | ≤ -4.2
93 | A52C U55C G83A U151A G152A | ≤ -4.2
94 | A52G U56C C93A | -2.44
95 | A52U U55A | -1.7
96 | A52C G59A G68A C79U G92U U104G | ≤ -4.2

Row | Variant | polymerase ribozyme fitness (log ratio)
97 | A52C C57U C63A C72G U77A C85A A107U A122U G136C U148A | ≤ -4.2
98 | A52U C57U G83C | -3.29
99 | A52G C87U C93U C131A G136A G143C U145G U146G | ≤ -4.2
100 | A52G U78C | -0.764
101 | A52G C103U | -1.06
102 | A52U A73U G92U | -3.66
103 | A52C A122G | -1.4
104 | A52U A122G | -3.43
105 | A52U G83A C118U A121C | -2.33
106 | C51U C96A C105A C118U | -2.94
107 | A52G C85A G140U | ≤ -4.2
108 | A52C A91U C93A G133C | ≤ -4.2
109 | A52C U55G | -3.84
110 | A52U U56A C79G C105A | ≤ -4.2
111 | A52C U55A G62C G84A C105U C114U G141A C149A | ≤ -4.2
112 | C51U G88U U90C G94A C95U A147G | ≤ -4.2
113 | C51U G65C C87U | ≤ -4.2
114 | A52C U55A U56A G86C | -4.01
115 | A52C G92U G152U | -3.32
116 | C51U G94A C118U | -1.44
117 | A52U G59C A91U | ≤ -4.2
118 | A52G G94C | -1.32
119 | C51U U56A C57A C105G A122G | -2.19
120 | A52C G88A U146G A150C | ≤ -4.2

Row | Variant | polymerase ribozyme fitness (log ratio)
121 | A52U C54A G70A A89G G92C A119C G126A G141A | ≤ -4.2
122 | A52C C116G | -1.21
123 | A52G U101G | -0.16
124 | A52U U82G U135G A150U | -2.62
125 | A52C C85A A121G | -1.8
126 | A52G A121C | -0.337
127 | A52U G58C U78A A122G | ≤ -4.2
128 | A52G U102G G124A | -3.08
129 | U53A A89U | -0.481
130 | A52G G86U C96G U144C U151C | ≤ -4.2
131 | C51U U53A C93A G124U | -3.59
132 | A52G C96U A122U | -0.85
133 | U53A A91G G124A U139G U146A | -3.5
134 | A52G C69A | -3.71
135 | A52C G86A | -1.2
136 | A52C G86C | -4.07
137 | A52C C96U A119U U130G | ≤ -4.2
138 | A52G C93U C116U | -1.48
139 | A52U C93A U139G | ≤ -4.2
140 | A52G U53C G58A A142C | -3.35
141 | A52G G84U U144G | -1.56
142 | A52U C87U C103U | -2.81
143 | C51U G81C C85U G117C U134A A137G | -3.98
144 | A52U A66G C87G A97G | ≤ -4.2

Row | Variant | polymerase ribozyme fitness (log ratio)
145 | A52C U53A G65A A66C C79U C149U | ≤ -4.2
146 | A52U U53A C57A G86A | -1.31
147 | A52U C54G | -2.21
148 | A52U C54U | -1.2
149 | A52C C96G | -1.36
150 | A52C C96A | -1.55
151 | A52U A89G | -3.14
152 | C51U C108U | -3.72
153 | A52G U56G A60C C85G G143U | ≤ -4.2
154 | A52G A73G | -0.266
155 | A52G A60C | -1.96
156 | A52C C54A A89G G117A | -3.55
157 | A52C C87U | -0.789
158 | A52G C57G C87U | -1.27
159 | A52G A66U A91U | ≤ -4.2
160 | A52C G58A A147U | -0.233
161 | U53A A60G C96U A106U U139G | -2.41
162 | A52U U144G A147C | -0.409
163 | A52G U61G A73G | -2.84
164 | A52G C63U C93U | -1.7
165 | C51U U53G A119U G143C | ≤ -4.2
166 | A52C C85G C87U G133A G143C | -4.07
167 | C51U C95U U104G U144A | -2.33
